For this data set, the target named is SV40 large T antigen (Tag) (Simian virus 40) (UniProt P03070). Kind of data set: DSF.

Here are results for one substance from paper PMC7144908.

Chain of SV40 large T antigen (Tag) (Simian virus 40) (P03070 whole entry): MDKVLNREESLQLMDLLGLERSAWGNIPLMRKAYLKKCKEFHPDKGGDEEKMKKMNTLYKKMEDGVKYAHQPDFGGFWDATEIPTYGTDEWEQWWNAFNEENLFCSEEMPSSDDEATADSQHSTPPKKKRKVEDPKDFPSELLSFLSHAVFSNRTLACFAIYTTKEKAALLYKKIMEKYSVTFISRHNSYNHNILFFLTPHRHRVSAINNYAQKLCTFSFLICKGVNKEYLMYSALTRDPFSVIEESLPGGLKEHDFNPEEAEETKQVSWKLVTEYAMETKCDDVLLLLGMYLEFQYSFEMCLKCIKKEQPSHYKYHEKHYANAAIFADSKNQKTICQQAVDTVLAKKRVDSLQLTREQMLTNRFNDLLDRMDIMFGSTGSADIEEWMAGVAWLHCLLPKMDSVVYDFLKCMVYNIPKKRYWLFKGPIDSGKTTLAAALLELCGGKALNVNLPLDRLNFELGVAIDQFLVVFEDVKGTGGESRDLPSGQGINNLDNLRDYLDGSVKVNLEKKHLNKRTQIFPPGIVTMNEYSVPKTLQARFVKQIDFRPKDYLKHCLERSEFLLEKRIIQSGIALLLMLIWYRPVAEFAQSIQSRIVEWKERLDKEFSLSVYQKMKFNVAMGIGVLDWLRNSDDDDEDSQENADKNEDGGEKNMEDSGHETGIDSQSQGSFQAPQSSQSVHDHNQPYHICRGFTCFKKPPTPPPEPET

What is called Kd is the concentration at which binding is half-saturated. A lower Kd goes with tighter binding. Consider Poly(dT), for which the Kd came out at 0.04 µM.
